Two molecules from article PMC4278905, “Differential Binding of Lef1 and Msx1/2 Transcription Factors to Dkk1 CNEs Correlates with Reporter Gene Expression In Vivo” can be followed below.

For this data set, the target named is Lef1 (UniProt P27782 1-397). The data set can be described thus: EMSA; 100 ng Lef1, 5 mM Mg2+, 1 ug poly(dI-dC); 20 mM Hepes pH 7.9, 60 mM KCl, 1 mM EDTA, 1 mM DTT, 5 mM MgCl2, 10% glycerol, 1 ug poly(dI-dC), 30 min on ice; 5% native PAGE, 0.5x TBE, 4 C. Particulars: protein: recombinant; tags: GST removed by thrombin (pGEX4T-1); label: 32P (T4 PNK, 5' end); blunt.
Sequence of Lef1 (P27782 whole entry): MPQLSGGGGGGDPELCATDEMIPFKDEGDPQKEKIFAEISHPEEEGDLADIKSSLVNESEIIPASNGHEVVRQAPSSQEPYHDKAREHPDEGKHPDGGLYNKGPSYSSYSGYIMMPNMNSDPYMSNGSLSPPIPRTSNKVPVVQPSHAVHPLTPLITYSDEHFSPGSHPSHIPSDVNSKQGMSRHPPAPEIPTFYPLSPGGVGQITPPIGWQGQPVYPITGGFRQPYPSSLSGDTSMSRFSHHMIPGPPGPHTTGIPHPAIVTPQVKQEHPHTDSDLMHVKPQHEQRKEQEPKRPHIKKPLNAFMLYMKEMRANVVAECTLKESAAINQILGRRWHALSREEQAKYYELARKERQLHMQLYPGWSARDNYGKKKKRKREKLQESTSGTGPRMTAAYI

B1: CNE195 Tcf/Lef (dsDNA)
DNA 1: ATGAATGAAACTTCAAAGGGCAAGGGTCA
DNA 2: TGACCCTTGCCCTTTGAAGTTTCATTCAT
For B1, the binding result is “binds”.

B2: CNE195Mut(TCF/Lef) (dsDNA)
DNA 1: ATGAATGAAACTTGAATTCGCAAGGGTCA
DNA 2: TGACCCTTGCGAATTCAAGTTTCATTCAT
As for B2, the binding result was “no binding”.
